Experimental data as given in patent US20200362050A1 (BLACK BELT THERAPEUTICS, published 2020).
Blank lines part the entries; values can stand above or below the molecule they belong to.

How the values were obtained:
[1] = target: recombinant human CD38 his tagged (extracellular domain) (human) (UniProt P28907); test: Forte Bio BLI, IgG on AHQ sensors
[2] = target: T1, human CD38 expressed on human cell lines (Daudi, Ramos, Raji, Jurkat) (human, UniProt P28907 1-300); test: flow cytometry on Daudi cells, secondary rabbit anti-human Fcg F(ab')2, MFI against log antibody concentration
T1 construct: Endogenous CD38 of the cell lines; also called CD38 expressed on cell lines of human origin
T1 sequence: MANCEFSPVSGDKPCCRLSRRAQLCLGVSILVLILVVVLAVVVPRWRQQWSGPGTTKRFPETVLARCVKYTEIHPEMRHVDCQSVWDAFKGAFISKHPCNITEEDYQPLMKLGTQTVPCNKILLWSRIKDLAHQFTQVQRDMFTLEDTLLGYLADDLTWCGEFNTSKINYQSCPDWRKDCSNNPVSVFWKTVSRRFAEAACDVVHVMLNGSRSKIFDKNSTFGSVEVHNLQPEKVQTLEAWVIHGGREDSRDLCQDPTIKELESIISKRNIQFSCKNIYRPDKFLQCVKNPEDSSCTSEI
Experimental: (§1) Binding of anti-CD38 Antibodies to CD38-expressing cells: The candidate hits are evaluated by binding to lymphoblast like human cell lines, Ramos and Daudi. Binding to CD38 expressing human cell lines (Ramos and Daudi) was examined by staining test articles (anti-CD38 primary antibodies) with 20 μg/ml antibodies followed by semi-log dilution series (7-point) for 30 minutes on ice. This was followed by staining with a secondary antibody (rabbit anti-human Fcg F(ab′)2) concentration of 5 μg/ml for 30 minutes on ice. All samples were stained in triplicates. To minimize cross-linking induced cell death mediated by binding of the secondary antibody, cell lines were examined in staining cohorts of 4 test articles at a time. Live cells were gated using FSC vs SSC parameters by flow cytometry during sample acquisition. Mean fluorescence intensity (MFI) of stained cells were plotted on an XY chart, graphing MFI against the log of the concentration, and the data fit to a non-linear regression curve from which the EC50 is calculated.

[3] = target: T1, human CD38 expressed on human cell …; test: flow cytometry on Ramos cells, secondary rabbit anti-human Fcg F(ab')2, MFI against log antibody concentration
Experimental: as §1

[4] = target: T2, recombinant human CD38 his tagged (extracellular domain) (human, UniProt P28907 43-300); test: SPR, Biacore 2000, antibody captured by anti-human antibody, rhCD38-his as analyte
T2 construct: Bought from Sino Biological; also called rhCD38; rhCD38-his; not shown: Histidine tag
T2 sequence: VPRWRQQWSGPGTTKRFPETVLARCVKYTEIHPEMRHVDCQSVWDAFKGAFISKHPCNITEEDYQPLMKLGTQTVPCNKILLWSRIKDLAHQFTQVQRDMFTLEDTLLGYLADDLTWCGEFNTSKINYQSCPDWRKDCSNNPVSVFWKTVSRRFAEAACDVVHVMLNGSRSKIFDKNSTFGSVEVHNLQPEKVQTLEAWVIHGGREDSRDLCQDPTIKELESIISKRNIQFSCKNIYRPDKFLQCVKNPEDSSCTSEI

[5] = target: T2, recombinant human CD38 his tagged …; test: BLI (Octet), avidity format: rhCD38-his loaded on Ni-NTA sensor, antibody in solution
Experimental: Avidity binding measurements of anti-CD38 Antibodies: Ni-NTA sensors were equilibrated off-line in assay buffer for 30 minutes and then monitored on-line for 60 seconds for baseline establishment. […] Then the antibody was associated at different concentrations (as described in FIGS. 8) for 50 min. Afterwards they were transferred to assay buffer for 30 minutes for off-rate measurement. Kinetics data were fit using a 1:1 binding model in the data analysis software provided by ForteBio.

[6] = target: T2, recombinant human CD38 his tagged …; test: BLI (Octet / Forte Bio), IgG against monovalent human CD38-HIS (affinity)

Kd [1]: 9 nM
Molecule: IB4, reference monoclonal agonistic mouse anti-human CD38 antibody

EC50 (read off the curve) [2]: ~0.2 µg/mL
EC50 (read off the curve) [3]: ~0.4 µg/mL
Kd [4]: 0.65 nM
B1: aCD38-a-309 human IgG1 (aCD38-a-309-hIgG1) (antibody, V domains shown)
VH: EVQLVESGGGLVKPGGSLRLSCAASGFTFSSYSMNWVRQAPGKGLEWVSSISSSSNYIYYADSVKGRFTISRDNAKNSLYLQMNSLRAEDTAVYYCAREPIYTSGWPFDIWGQGTMVIVSS
VL: EIVLTQSPATLSLSPGERATLSCRASQSVSSYLAWYQQKPGQAPRLLIYDASNRATGIPARFSGSGSGTDFTLTISSLEPEDFAVYYCQQHVNFPWTFGGGTKVEIK
notes: They are assigned here because the control is a human IgG1 isotype; not shown: human IgG1 heavy chain constant region, P01857; human kappa light chain constant region, P01834

Kd [5]: 0.134 nM
Kd [6]: 32.9 nM
B2: aCD38-a-309-IgG4 (antibody, V domains shown)
VH: EVQLVESGGGLVKPGGSLRLSCAASGFTFSSYSMNWVRQAPGKGLEWVSSISSSSNYIYYADSVKGRFTISRDNAKNSLYLQMNSLRAEDTAVYYCAREPIYTSGWPFDIWGQGTMVIVSS
VL: EIVLTQSPATLSLSPGERATLSCRASQSVSSYLAWYQQKPGQAPRLLIYDASNRATGIPARFSGSGSGTDFTLTISSLEPEDFAVYYCQQHVNFPWTFGGGTKVEIK
